# Data as given in PMC3233575, “DC-SIGN Increases the Affinity of HIV-1 Envelope Glycoprotein Interaction with CD4” (PLoS ONE, 2011).
# B1: soluble recombinant DC-SIGN, entire extracellular domain (residues 70-404) (domain or fragment)
# chain: EQSRQDAIYQNLTQLKAAVGELSEKSKLQEIYQELTQLKAAVGELPEKSKLQEIYQELTRLKAAVGELPEKSKLQEIYQELTWLKAAVGELPEKSKMQEIYQELTRLKAAVGELPEKSKQQEIYQELTRLKAAVGELPEKSKQQEIYQELTRLKAAVGELPEKSKQQEIYQELTQLKAAVERLCHPCPWEWTFFQGNCYFMSNSQRNWHDSITACKEVGAQLVVIKSAEEQNFLQLQSSRSNRFTWMGLSDLNQEGTWQWVDGSPLLPSFKQYWNRGEPNNVGEEDCAEFSGNGWNDDKCNLAKFWICKKSAASCSRDEEQFLSPAPATPNPPPA
# notes: DC-SIGN, entire extracellular domain, residues 70-404 of GenBank NP_066978; cDNA of immature monocyte-derived dendritic cells; the sense primer carries an ATG before the first DC-SIGN codon; The preparation is a monomer:tetramer equilibrium (3.3:1 tetramer to monomer by SEC); the tetramer predominates. pET15b normally adds an N-terminal His6 tag with a thrombin site (surmised); no cleavage is …
# Target: the molecule itself
# Assay: SEC; two tandem Superdex 200 3.2/30 PC columns, 100 mM Tris-HCl pH 7.9, 0.15 M NaCl, room temperature, about 50 µg refolded protein; monomer to oligomer equilibrium
protein,measurement,value
B1,stoichiometry N,4
